The target of the assay is Human PD-1 expressed on CHO-K1 cells (CHO-K1/hPD-1) (human) (UniProt Q15116). The assay is described as follows: FACS, CHO-K1/hPD-1 cells. Background: In flow cytometry, cells or beads pass a laser one at a time.
Human PD-1 expressed on CHO-K1 cells (CHO-K1/hPD-1) (human), sequence (Q15116 25-288): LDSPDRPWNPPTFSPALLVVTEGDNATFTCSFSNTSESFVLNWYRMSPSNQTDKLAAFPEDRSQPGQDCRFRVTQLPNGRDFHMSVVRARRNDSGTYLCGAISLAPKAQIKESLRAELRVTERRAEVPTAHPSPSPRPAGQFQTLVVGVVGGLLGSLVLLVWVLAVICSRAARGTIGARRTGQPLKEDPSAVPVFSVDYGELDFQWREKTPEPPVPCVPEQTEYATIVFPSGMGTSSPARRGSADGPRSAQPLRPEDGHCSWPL

Substance hIgG1 (antibody) came in with a Maximum (MFI) of 49300.

The values above are taken from patent US20240034792A1.
